Source: patent publication US20220195015A1 (published 2022)
Positions count from the first letter of the chain named.

B1: C088 (antibody, V domains shown)
VH: QVQLVQSGAEAKKPGASVKVSCKTSGYTFTNYFMHWVRQAPGQGPEWMGIIDSSDGGASYAQKFQGRVTMTRDTSTSTVYMELRSLKFEDTAVYYCARASTSTTSWSDALSLGSWGQGTLVTVSS
VL: QSVLTQPPSVSGAPGQRVTISCTGSSSNIGGGSVVHWYQQLPGTAPKLLIYANSNRPSGVPDRFSGSKSGTSASLAIAGLQAEDEADYYCQSWDNGLSASGVVFGGGTKLTVL
B2: C060 (antibody, V domains shown)
VH: EVQLVESGGGLVQPGGSQRLSCAASGFTVSSNYMSWIRQAPGKGLEWVSVIYSGGSAYYVDSVKGRFTISRDNSKNTLYLQMNSLRPEDTAVYYCARIANYMDVWGKGTTVTVSS
VL: EIVMTQSPATLSVSPGERATLSCRASQSVSSHLAWYQQKPGQAPRLLIYGASTRATGIPTRFSGSGSGTEFTLTISSLQSEDFAVYYCQQYNNWPPLTFGGGTKVEIK
B3: C067 (antibody, V domains shown)
VH: VQLVESGGGVVQPGRSLRLSCAASGFSFRIFGMNWVRQAPGKGLDWVAGISHDGSDKYFADSVKGRFTISRDNSKNTLYLQMNSLRADDTAVYYCARDMEVDYYDRSGHYHVFHAFDIWGQGTMVTVSS
VL: DIVMTQSPDSLAVSLGARATINCKSSQSILYSSDNKSSLAWYQQKPGHPPKLLIYWASTRESGVPDRFSGSESGTDFTLTISNLQGEDVAVYYCQQYYSIPRSFGQGTKLEIK
B4: C089 (antibody, V domains shown)
VH: QVQLVESGGGVVQPGRSLRLSCAASGFTFRTYAMHWVRQAPGKGLEWVAVILSDGNNKYYADSVKGRFTISRDNSKNTLYLQMNSLRAEDTAIFYCAREQEANYYDISGYYHWGESLGYWGQGTLVTVSS
VL: DIQLTQSPSFLSASVGDRVTITCRASQGISSYLAWYQQKPGKAPKLLIYGASTLQSGVPSRFSGSGSGTEFTLTISSLQPEDFASYYCQKVNSHPPGLTFGGGTKVEIK
B5: C090 (antibody, V domains shown)
VH: B4 VH
VL: B4 VL with L46F, H94Y
B6: C059 (antibody, V domains shown)
VH: QVQLVQSGAEVKKPGASIKVSCKASGYTFTDYSMHWVRQAPGQGLEWMGWINPNSGGTKYAQKFQGWVTMTRDMSITTVYMELTRLRSDATAVFYCARGPLFHKLVYDSWTGYHDGFDIWGQGTMVTVSS
VL: QSALTQPASVSGSPGQSITISCTGTSSDVGGYNYVSWYQHYPGKAPKLMIYEVTHRPSGVSNRFSGSKSGNTASLTISGLQAEDEADYYCSSSTNSSTWVFGGGTKMTVL
B7: C081 (antibody, V domains shown)
VH: EVQLVESGGGLVKPGGSLRLSCAASGFTFSSAWMSWVRQAPGKGLEWVGRIKTKTDGGTKDYAAPVKGRFTISRDDSKNTLYLQMNSLKTEDTAVYYCTTTNDYGDYSPAYWGQGTLVTVSS
VL: not shown
B8: C085 (antibody, V domains shown)
VH: QVQLQESGPGLVKPSETLSLTCTVSGDSMSSYFWTWIRQPPGKGLECIGYFYPSGSTNYNPSLKSRVTISIDTSKNQFSLKLSSVTAADTAVYYCARLKQQLVGFGWFDPWGQGTLVTVSS
VL: QSVLTQPPSVSGAPGQRVTISCTGSSSNIGADYDVHWYQQFPGTAPKVLIYANTNRPSGVPERFSGSKSGTSASLAITGLQAEDEADYYCQSYDHSLNWVFGGGTKLTVL
B9: C086 (antibody, V domains shown)
VH: B8 VH with M29I, S31T, T35A, K43R, Y50S, Y52F, N58Y, I71V, S83N, T115S
VL: B8 VL with S26I, D34E, Q39V, G66A, S96R, N98H
B10: C062 (antibody, V domains shown)
VH: EVQLVESGGGLVKPGGSLRLTCAASGFTFSTYSMNWVRQAPGKGLEWVSSISSSSSYIYYADSVKGRFTISRDNAKNSLYLQMNSLRAEDTAVYYCARERGYYGGKTPPFLGGQGTLVTVSS
VL: NFMLTQPHSVSESPGKTVTISCTGSSGSIASNYVQWYQQRPGSAPTTVIYEDNQRPSGVPDRFSGSIDSSSNSASLTISGLKTEDEADYYCQSYDSSNYWVFGGGTKLTVL
B11: C064 (antibody, V domains shown)
VH: EVQLLESGGDLVQPGGSLRLSCAASGFTFSNYAMSWVRQAPGKGLEWVSAISGSGGNTYYADSVKGRFTISRDNSKNTLYLQMNSLRAEDTAVYYCAKAVHYGGNSDRRFSEPSAPFDYWGQGTLVTVSS
VL: QSALTQPASVSGSPGQSITISCTGTSSDVGSYNLVSWYQQHPGKAPKLMIYEGSKRPSGVSNRFSGSKSGNTASLTISGLQAEDEADYYCCSYAGSSTPYVFGTGTKVTVL
B12: C065 (antibody, V domains shown)
VH: QVQLQESGPGLVKPSQTLSLTCTVSGGSISSSNYYWSWIRQHPGKGLEWIGYIDYSGGTYYNPSLKSRVTISVDTSKNQFSLKLSSVTAADTAVYYCARVSTTVTTYLVGGFDIWGQGTMVTVSS
VL: IRMTQSPSSLSASVGDRVTITCQASQDITNYLNWYQQKPGKAPKLLLYDASNLETGVPSRFSGSGSGTDFTFTISSLQPEDIATYYCQQYDNLPWTFGQGTKVEIK
B13: C057 (antibody, V domains shown)
VH: QVQLVQSGAEVKRPGASVKLSCKASGYIFTDYSIHWVRQAPGQGLEWMGWVNPNSGGGNSAQKFMDWVTMARDTSITTVYMELSRLRSDDTAVYYCARGPLFHKLVYDSWSGYHDGFDIWGQGTMVTVSS
VL: QSALTQPASVSGSPGQSITISCTGTSSDVGAYKFVSWYQQHPGKAPQLIIYEVSNRPSGVSNRFSGSKSGNTASLTISGLQAEDEADYYCSSYTNASTWVFGGGTELTVL
B14: C058 (antibody, V domains shown)
VH: QVQLVQSGAEVKKPGASVKVSCKASGYIFTDYSMHWVRQAPGQGLEWIGWVNPNSGGTNYAQKFQGWVTMARDTSITTVYMELSRLKSDDTAVYFCARGPLFHRLVYDFWSGYHDGFDMWGQGTMVTVSS
VL: B13 VL with A31G, Q47K, I49M, S91N, N95S, A96S, E106K
B15: C069 (antibody, V domains shown)
VH: QVQLVQSGAEVKKPGSSVNVSCKASGGTFSTYAIHWVRQAPGQGLEWMGGIIPLFHTANYAQKFQGRVTITADESTSTAYMELSSLRSEDTAMYYCAINTQWDLVPRWGRGTLVTVSS
VL: EIVLTQSPGTLSLAPGERATLSCRASQSVNSNYLAWYQQKPGQAPRLLIYGASSRATGIPDRFSGSGSGTDFTLTISRLEPEDFAVYYCQQYGFSLYSFGQGTKLEIK
B16: C055 (antibody, V domains shown)
VH: EVQLVESGGGLVQPGGSLRLSCAASGFSVSTKYMTWVRQAPGKGLEWVSVLYSGRTDYYADSVKGRFTISRDSSKNILYLQMSSLRVEDTGFYYCARDSSEVRDHPGHPGRSVGAFDIWSQGTMVTVSS
VL: QSALTQPASVSGSPGQSIAISCTGTSNDVGSYTLVSWYQQYPGKAPKLLIFEDSQRSSGISNRFSGSKSGNTASLTISGLRGEDEADYYCCSYAGSHTFVFGGGTKVTVL
B17: C066 (antibody, V domains shown)
VH: EVQLVESGGGLIQPGGSLRLSCAASGLLVSRNYMTWVRQAPGKGLEWVSVIYSGGSTFYADSVRGRFTISRDNSKNTLYLQMDSLRAEDTAVYYCARDVGDYYGMDVWGQGTTVTVSS
VL: DIQLTQSPAFLSASVGDRVTITCRASQGMSNYLAWYQQKPGKAPNLLIYTASTLQSGVPSRFSGSGSGTEFTLTISSLQPEDFATYYCQLLNSYPQLTFGGGTKVEIK
B18: C518 (antibody, V domains shown)
VH: EVQLVESGGGLIQPGGSLRLSCAASGITVSSNYMSWVRQAPGKGLEWVSVMYAGGSSFYADSVKGRFTISRDNSKNTLYLQMNSLRVEDTAVYYCARDLIALGVDVWGQGTTVTVSS
VL: B17 VL with A9S, M29I, N31S, N45K, T50A, Q96M, L97C, T98S, G101Q, V105L
B19: C051 (antibody, V domains shown)
VH: EVQLVESGGGLIQAGGSLRLSCAASGFGVRNNYMSWVRQAPGKGLEWVSVIYSGGTTYYADSVKGRFTISRDNSKNTVFLQMNSLRAEDTAVYYCAREGDVEGFSDLWSGYSRDRYYFDYWGQGTLVTVSS
VL: QSALTQPASVSGSPGQSITFSCTGTSSDVGGYNYVSWYQQYPGKAPKLLIYDVTNRPSGVSDRFSGSKSGNTASLTISGLQAEDEADYYCSSFTSSNTRVFGTGTKVTVL
B20: C052 (antibody, V domains shown)
VH: B19 VH with Q13R, A14P, G28S, R30S, T68N, F79Y, F104Y, S105Y, L107F, T125A
VL: B19 VL with F20I, Y41H, L49M, T54S, D62N, S91N, F93Y, S96N
B21: C053 (antibody, V domains shown)
VH: B19 VH with A14P, G28I, R30S, E46D, V78L, F79Y, F104Y, S105H, L107S
VL: QSALTQPASVSGSPGQSITISCTGSSSDVGGYNFVSWYQQHPGRAPKLMIYDVSNRPSGVSNRFSGSKSGNTASLTISGLQVEDEADYYCSSYTNNNTRVFGTGTKVTVL
B22: C054 (antibody, V domains shown)
VH: EVQLVESGGGLIQPGGSLRLSCAASGFTVSNNYMSWVRQAPGKGLEWVSVIYSGGSTYDADSVKGRFTISRDNSKNTLYLQMNSLSAEDTAVYYCAREGDVEGYYDFWSGYSRDRYYFDYWGQGTLVTVSS
VL: B19 VL with F20I, Y41H, L49M, T54S, D62N, F93Y, N97S, T98A
B23: C063 (antibody, V domains shown)
VH: EVQLVQSGAEVKKPGDSLKISCKASGYSFTRYWIGWVRQMPGKGLDWMGIIYPGDSDTRYSSSFQGQVTISADKSISTAYLQWSSLKASDTSLYYCVRRASSTNFEFWGQGTLVTVSS
VL: SYELTQPPSVSVAPGQTATITCGGNNIGSKTVHWYQQKPGQAPVVVVYDDSDRPSGIPERFSGSKSGSTATLTITRVEAGDEADYYCQVWDSTSDHYVFGTGTKVAVI
B24: C068 (antibody, V domains shown)
VH: QVQLVESGGGVVQPGRSLRLSCVASGFSFSTYGMHWVRQAPGKGLEWVALIWSDGSNKYYGDAAEGRFTISRDNSNNTLYLQMNNLRAEDTALYYCARDHSSSSFVYYYYMDVWGKGTTVTVSS
VL: QSALTQPRSVSGSPGQSVTISCTGTSSDIGGYNYVSWYQQHPDKAPKFIIFDVSKRPSGVPDRFSGSKSGNTASLTISGLQAEDEADYYCCSYAGPYPYVFGTGTKVTVL
B25: C083 (antibody, V domains shown)
VH: EVQLVESGGGLVKPGGSLRLSCAASGFTFSSYSMNWVRQAPGKGLEWVSSISSSTSYIYYADSVKGRFTISRDNAKNSLYLQMNSLRAEDTAVYYCARERYGDNWGQGTLVTVSS
VL: QLVLTQSPSASASLGASVKLTCTLSSGHSSYAIAWHQQQPEKGPRYLMSLNSDGSHSKGDGIPDRFSGSSSGAERYLTISSLQSEDEADYYCQTWGPWVFGGGTKLTVL

Molecular target: SARS-CoV-2 spike protein receptor binding domain (RBD) (SARS-CoV-2, UniProt P0DTC2 319-539)
Assay: ELISA on coated RBD protein

| Binder | EC50 |
| --- | --- |
| B1 | 2.44 ng/mL |
| B2 | 43.5 ng/mL |
| B3 | 6.98 ng/mL |
| B4 | 4.69 ng/mL |
| B5 | 6.22 ng/mL |
| B6 | 1.88 ng/mL |
| B7 | 12.5 ng/mL |
| B8 | 2.38 ng/mL |
| B9 | 3.01 ng/mL |
| B10 | 4.69 ng/mL |
| B11 | 363 ng/mL |
| B12 | 29.1 ng/mL |
| B13 | 2.31 ng/mL |
| B14 | 2.28 ng/mL |
| B15 | 381 ng/mL |
| B16 | 1.25 ng/mL |
| B17 | 4.2 ng/mL |
| B18 | 1.13 ng/mL |
| B19 | 1.65 ng/mL |
| B20 | 1.23 ng/mL |
| B21 | 1.53 ng/mL |
| B22 | 1.58 ng/mL |
| B23 | 414 ng/mL |
| B24 | 5.46 ng/mL |
| B25 | 25.1 ng/mL |
